Measurements from patent US10653749B2, “Targeting GIV-GEF-GI signaling for treating diverse diseases” (The Regents of the University of California, priority 2015, dated 2020).
Entries after “also recorded” stand apart in the source; their conditions may differ.

Experiments:
[1] = target: T1, Gαi1-YFP / CFP-Gβ1 / Gγ2 heterotrimer (Gi) (Homo sapiens, UniProt P63096); assay: FRET assay of Gi heterotrimer dissociation after EGF in GIV-depleted HeLa cells; assay type: cell-based
T1 construct: expressed in transfected cells; host or cells: HeLa cells stably depleted of GIV by shRNA
T1 sequence (P63096 2-354 limits assumed, one chain of several): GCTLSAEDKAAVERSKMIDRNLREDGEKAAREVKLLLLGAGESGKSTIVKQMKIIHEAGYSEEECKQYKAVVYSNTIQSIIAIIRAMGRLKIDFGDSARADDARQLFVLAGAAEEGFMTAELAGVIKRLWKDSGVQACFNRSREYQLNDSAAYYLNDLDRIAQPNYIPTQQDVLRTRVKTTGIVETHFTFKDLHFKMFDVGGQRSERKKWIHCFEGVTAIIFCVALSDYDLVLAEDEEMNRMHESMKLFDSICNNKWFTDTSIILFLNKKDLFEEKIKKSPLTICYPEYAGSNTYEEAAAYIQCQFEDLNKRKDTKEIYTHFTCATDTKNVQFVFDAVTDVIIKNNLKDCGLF
Protocol: HeLa cells stably depleted of GIV by shRNA were grown to 60-70% confluence in sterile 35 mm MatTek glass bottom dishes. One microgram each of various donor and acceptor plasmid constructs were transfected with Trans-IT-LT1 transfection reagent (Minis Bio LLC) using manufacturer's protocol. Cells were starved overnight in serum-free DMEM (Gibco), transduced the following morning with TAT proteins for 30 min, washed with PBS and subsequently the media was switched to DMEM without phenol red before live cell imaging. EGF stimulation was carried out ˜4 h after TAT transduction. Fluorescence microscopy studies were conducted on single cells in mesoscopic regime to avoid inhomogeneities from samples as previously rationalized by Midde et al. (55-57). Olympus FV1000 inverted confocal laser scanning microscope was used for live cell FRET imaging (UCSD-Neuroscience core facility). The microscope is stabilized on a vibration proof platform, caged in temperature controlled (37° C.) and CO2 (5%) supplemented chamber. A 60×1.49 N. An oil immersed objective designed to minimize chromatic aberration and enhance resolution for 405-605 nm imaging was used. Olympus Fluoview inbuilt software was used for data acquisition through the method of sensitized emission. A 405 nm laser diode was used to excite ECFP and 515 nm Argon-ion laser was used to excite EYFP. The bandwidth of spectral emission was adjusted through grating to minimize bleed through. Enhanced CFP emission was collected from 425 to 500 nm and EYFP emission was collected through 535-600 nm and passed through a […] confocal pinhole before being sent to photomultiplier tube to reject out of plane focused light. Every field of view is imaged sequentially through ECFPex/ECFPem, ECFPex/EYFPem and EYFPex/EYFPem (3 excitation and emission combinations) and saved as donor, transfer and acceptor image files through an inbuilt wizard.
To obtain the FRET images and efficiency of energy transfer values a RiFRET plugin in Image J software was used (58). FRET images were obtained by pixel-by-pixel ratiometric intensity method and efficiency of transfer was calculated by the ratio of intensity in transfer channel to the quenched (corrected) intensity in the donor channel. Cells transfected with CFP and YFP alone were imaged under all three previously mentioned excitation and emission combinations and are used to correct for cross-talk. Furthermore, untransfected cells and a field of view without cells were imaged to correct for background, autofluorescence and light scattering. Cells chosen for imaging were ensured for identical expression of donor and acceptor probes by the photons collected in individual channels.

[2] = tested on: GIV, IRS1 and Akt phosphorylation; assay: Metabolic insulin signaling in L6 cells by immunoblotting; assay type: cell-based, rat; conditions: TAT-transduced L6 myotubes; for phosphorylation of Akt in response to insulin: pS473; for phosphorylation of IRS1 in response to insulin: pY632-IRS1
Protocol: Transfection was carried out with GeneJuice (Novagen) for DNA plasmids or Oligofectamine (Invitrogen) for siRNA oligos according to manufacturer's protocols. Silencer negative Control scrambled (Scr) siRNA used as control was purchased from Ambion and the previously validated (Enomoto et al., 2005) GIV siRNA sequence used was custom-ordered from Dharmacon. For TAT-construct transduction, cells were incubated with 300-800 nM of the TAT-proteins for 30 min at 37° C. prior to three washes with PBS and addition of fresh growth media. For assays involving insulin (Novagen) stimulation of TAT-treated cells, such stimulation was carried out 90 min after transduction.
Unless otherwise indicated, serum starvation of cells for use in experiments involving insulin stimulation was carried out by growing cells overnight in the presence of no serum (i.e., 0% FBS) in the case of Cos7 and L6 cells, or in the presence of 0.2% FBS in the case of HeLa cells. To induce IR, cells were pre-treated with Sodium Palmitate (PA; Sigma-Aldrich) (0.5 mM, stock solution at 5 mM/5% FFA-free BSA in ethanol) or vehicle control (5% FFA-free BSA in ethanol) for 16 h. To reverse IR with TZDs, cells were treated with 50 μM Pioglitazone (Pio) (Sigma-Aldrich) or DMSO (vehicle control) for 18 h prior to stimulation with 100 nM insulin. Treatment with PKCθ pseudo-substrate inhibitor (Santa Cruz Biotechnologies) was performed at 10 μM for 16 h.
Protein samples for immunoblotting were run on SDS/PAGE gels and transferred onto PVDF membranes (Millipore). Membranes were blocked with PBS containing 5% non-fat milk (or with 5% BSA when probing for phosphorylated proteins) before incubation with primary antibodies. GIV was detected using rabbit anti-GIV coiled-coil (Millipore) (1:500); GIV-CT (Santa Cruz Biotechnologies) (1:500); phospho-Tyr1764-GIV (1:500) and phospho-Ser1689-GIV (21st Century Biochemicals) (1:250) antibodies. Other antibodies used in this work include rabbit polyclonal antibodies against Gαi3 (1:333), pan-GP (1:250) and phospho-IRS1 (1:500) from Santa Cruz Biotechnologies; and phospho-Akt (1:250); total Akt (1:250); phospho-ERK (1:250); phospho-AS160 (1:250); total InsRβ (1:500) and total IRS1 (1:500) from Cell signaling. Mouse monoclonal Abs against phospho-InsRβ (1:250), His (1:1000), β-tubulin (1:1000), GFP (1:500) from Santa Cruz Biotechnologies, and control IgG (Bio-Rad Laboratories) were commercially obtained. Goat anti-rabbit and goat anti-mouse Alexa Fluor 680 or IRDye 800 F(ab′)2 secondary antibodies were purchased from Li-Cor Biosciences. Images were processed with ImageJ software (NIH) and assembled as figure panels using Photoshop and Illustrator software (Adobe).

GST-Gαi3 (GDP loaded) = target: T2, GST-Gαi3 (GDP loaded) (Rattus norvegicus, UniProt P08753); assay: In vitro GST pulldown of TAT-GIV-CT proteins with GST-Gαi3; assay type: binding; conditions: 3 μg TAT protein, 4 h at 4° C., immunoblot with His mAb
T2 construct: made in house; host or cells: E. coli BL21(DE3)
T2 sequence (P08753 whole entry): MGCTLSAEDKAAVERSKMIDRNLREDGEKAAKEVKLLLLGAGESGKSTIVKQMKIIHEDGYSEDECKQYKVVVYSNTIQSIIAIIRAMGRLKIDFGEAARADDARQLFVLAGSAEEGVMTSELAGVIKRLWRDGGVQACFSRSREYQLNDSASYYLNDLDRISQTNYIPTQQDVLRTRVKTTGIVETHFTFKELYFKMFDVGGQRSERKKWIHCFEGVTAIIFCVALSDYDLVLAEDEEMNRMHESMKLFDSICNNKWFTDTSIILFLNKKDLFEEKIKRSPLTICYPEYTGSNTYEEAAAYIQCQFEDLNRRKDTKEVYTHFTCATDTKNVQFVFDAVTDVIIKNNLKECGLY
Protocol: Purified GST-Gαi3 or GST alone (5 μg) were immobilized on glutathione-Sepharose beads and incubated with binding buffer [50 mM Tris-HCl (pH 7.4), 100 mM NaCl, 0.4% (vol:vol) Nonidet P-40, 10 mM MgCl2, 5 mM EDTA, 30 μM GDP, 2 mM DTT, protease inhibitor mixture] for 90 min at room temperature as described (49, 50, 52, 54). TAT-GIV-CT (amino acids 1,660-1,870) proteins (3 μg) were added to each tube, and binding reactions were carried out for 4 h at 4° C. with constant tumbling. Beads were washed (four times) with 1 mL of wash buffer [4.3 mM Na2HPO4, 1.4 mM KH2PO4 (pH 7.4), 137 mM NaCl, 2.7 mM KCl, 0.1% (vol:vol) Tween 20, 10 mM MgCl2, 5 mM EDTA, 30 μM GDP, 2 mM DTT] and reduced in Laemmli's sample buffer at 37° C. Immunoblot analysis was performed by infrared imaging following the manufacturer's protocols using an Odyssey imaging system (Li-Cor Biosciences).

Molecule	loss of FRET / dissociation of trimeric Gi in response to EGF ([1]; 50 nM EGF, 5 min)	FRET after EGF stimulation ([1]; 50 nM EGF, 5 min, p=0.0011)	FRET before EGF stimulation ([1]; plasma membrane ROIs, t0)	phosphorylation of Akt in response to insulin [2]	phosphorylation of IRS1 in response to insulin [2]	Binding to GDP-loaded GST-Gαi3 in pulldown (GST-Gαi3 (GDP loaded))	Binding to GDP-loaded GST-Gαi3 in pulldown (GST-Gαi3 (GDP loaded); listed as WT)	loss of FRET / dissociation of trimeric Gi in response to EGF ([1]; 50 nM EGF, 5 min, listed as FA)	Binding to GDP-loaded GST-Gαi3 in pulldown (GST-Gαi3 (GDP loaded); listed as FA)
TAT-GIV-CT-WT: Recombinant cell-permeable fusion of TAT-PTD, His and HA tags, linker and human GIV C-terminus (aa 1660-1870), wild type; SEQ ID NO: 2 (protein) MRGSHHHHHHGMASMTGGQQMGRDLYDDDDKDRWGSKLGYGRKKRRQRRRGGSTMSGYPYDVPDYAGSMGGSGHSGETLESRHHKIKTGSPGSEVVTLQQFLEESNKLTSVQIKSSSQENLLDEVMKSLSVSSDFLGKDKPVSCGLARSVSGKTPGDFYDRRTTKPEFLRPGPRKTEDTYFISSAGKPTPGTQGKIKLVKESSLSRQSKDSNPYATLPRASSVISTAEGTTRRTSIHDFLTKDSRLPISVDSPPAAADSNTTAASNVDKVQESRNSKSRSREQQSS	significant loss of FRET; also recorded: sufficient to trigger dissociation of trimeric Gi	0.15±0.07	0.22±0.04	enhancement	enhancement	bound	binds		
TAT-GIV-CT-FA: GEF-deficient F1685A mutant of the TAT-GIV-CT peptide, dominant-negative; SEQ ID NO: 3 (protein) MRGSHHHHHHGMASMTGGQQMGRDLYDDDDKDRWGSKLGYGRKKRRQRRRGGSTMSGYPYDVPDYAGSMGGSGHSGETLESRHHKIKTGSPGSEVVTLQQALEESNKLTSVQIKSSSQENLLDEVMKSLSVSSDFLGKDKPVSCGLARSVSGKTPGDFYDRRTTKPEFLRPGPRKTEDTYFISSAGKPTPGTQGKIKLVKESSLSRQSKDSNPYATLPRASSVISTAEGTTRRTSIHDFLTKDSRLPISVDSPPAAADSNTTAASNVDKVQESRNSKSRSREQQSS	No similar loss of FRET			suppressed	suppressed	did not bind		not	not
